Results as given in US20190195891A1, “DIAGNOSTIC AND THERAPEUTIC USES OF EXOSOMES” (Yeda Research and Development Co. Ltd., priority 2016, published 2019).

Legend:
[1] = test system: MLKL knocked-down HT-29 cells; test: Yield of exosomes in MLKL knocked-down HT-29 cells inducibly expressing MLKL mutants; format: cell-based, human; conditions: inducible expression, compared to wild-type MLKL
Source text: (§1) The various mutants of MLKL were expressed inducibly in HT-29 cells in which the endogenous MLKL mRNA was constitutively knocked down. Expression was achieved by lentiviral infection with the GEV16/pF5x UAS system as described previously [Dunning C J et al. The EMBO Journal (2007) 26, 3227-3237, doi:10.1038/sj.emboj.7601748].
In all experiments aimed at assessing the generation of exosomes by cultured cells, the FBS supplementing the growth medium was pre-depleted of bovine exosomes by centrifugation at […] for 18 hours. Except where otherwise indicated, the exosomes were collected after 12 hours of incubation. The stimuli whose effect on exosome generation was to be assessed were applied for the indicated times towards the end of this 12 hour period. Unless otherwise indicated, TBZ was applied for 4 hours. For recovery of exosomes from the mice, mouse blood samples were collected in MiniCollect®TUBEs (Greiner Bio-One) and centrifuged at 3000 rpm for 15 minutes. Mouse plasma and cell-growth media were passed through 0.2 μm filters and centrifuged at […] for 90 minutes, after which the pellet was suspended in phosphate-buffered saline (PBS) and re-sedimented by centrifugation as above. Size spectra and amounts of the particles in the exosome preparations were determined by Nanoparticle Tracking Analysis using the NanoSight NS300 device (Malvern Instruments) according to the manufacturer's instructions.

[2] = test system: MLKL knocked-down HT-29 cells; test: Cell death in MLKL knocked-down HT-29 cells inducibly expressing MLKL mutants; format: cell-based, human; conditions: induced expression of the mutant
Source text: as §1
Cell death was quantified using the Cytotoxicity Detection Kit (Roche Applied Science) to determine the concentration of lactic dehydrogenase (LDH) in the mouse cell media or plasma.

B1: MLKL deletion mutant corresponding to its 180 N-terminal amino acid coiled-coil region: MLKL deletion mutant, 180 N-terminal amino acids (protein, UniProt Q8NB16 1-180, looked up, fragment)
chain: MENLKHIITLGQVIHKRCEEMKYCKKQCRRLGHRVLGLIKPLEMLQDQGKRSVPSEKLTTAMNRFKAALEEANGEIEKFSNRSNICRFLTASQDKILFKDVNRKLSDVWKELSLLLQVEQRMPVSPISQGASWAQEDQQDADEDRRAFQMLRRDNEKIEASLRRLEINMKEIKETLRQYL
[1]
  generation of exosomes: significantly lower
[2]
  cell death: triggers necrotic death of the cells
